Results as given in US20230313187A1, “MODIFICATIONS OF MAMMALIAN CELLS USING ARTIFICIAL MICRO-RNA TO ALTER THEIR PROPERTIES AND THE COMPOSITIONS OF THEIR PRODUCTS” (DNA TWOPOINTO INC., priority 2020, published 2023).

Test system: Cricetulus griseus dihydrofolate reductase mRNA
Experiment: Growth of a clonal cell line with amiRNA targeted toward dihydrofolate reductase with/without HT and MTX
Type: cell-based
Details: 50 nM MTX, no HT
Description: A monoclonal line (C426) was derived from the pool transfected with the transposon comprising multi-hairpin amiRNA with nucleotide sequence SEQ ID NO: 210 and selected with 800 μg/ml G418 described in Section 6.5.1. Growth of this clonal cell line in the presence and absence of HT and in the absence of HT and presence of 50 nM MTX was compared with the growth of a control cell line from which C426 was derived.
Cells were transferred to Sigma Advanced Fed Batch media with 5 uM glutamine and to an initial a density of 0.3×10^6 live cells/ml. Parallel cultures were grown (a) in the presence of HT, (b) in the absence of HT and (c) in the absence of HT and the presence of 50 nM MTX. At day 4, all cultures were diluted to adjust viable cell densities to 0.3×10^6 cell/ml. At day 8, all cultures were again diluted to adjust viable cell densities to 0.3×10^6 cell/ml. At day 13, all cultures except for the culture of C426 with 50 nM MTX were again diluted to adjust viable cell densities to 0.3×10^6 cell/ml.
Table 12. Growth of a clonal cell line with amiRNA targeted toward dihydrofolate reductase. […] Viable cell densities were measured at various times after the beginning of the experiment: the cell line is shown in column A, the presence of HT is indicated in column B and the concentration of MTX is shown in column C. […]

B1: SEQ ID NO: 210: three-hairpin amiRNA, guides SEQ ID NOs 82, 83, 84 complementary to Cricetulus griseus dihydrofolate reductase mRNA (nucleic acid)
chain: ATCTGATCTTCTGAAGAAAATATATTTCTTTTTATTCATAGCTCTTAACTAGTGGTGATAGCAATGTCAGCAGTGCCTTAACTCATAGATCTAAAGCCAAGTGAAGCCACAGATGTTGGCTTTAGCTCTATGAGTTCAAGTAAGGTTGACCATACTCTACTCTAGAGTTGTGTTTTAATGTATATTAATGTTACTAATGTGTTTACTAGTGGTGATAGCAATGTCAGCAGTGCCTTAGAGTACAACAGTTGCCCAGGGTGAAGCCACAGATGCCTGGGCAACCGTTGTACTCTCAAGTAAGGTTGACCATACTCTACTCTAGGTTATTTTTAGTATGATTCTGTAAAAATGAATTAATACTAACTAGTGGTGATAGCAATGTCAGCAGTGCCTTTGTTTAGAATTATACAGGGGCGTGAAGCCACAGATGGCCCCTGTATCATTCTAAACACAAGTAAGGTTGACCATACTCTACTCTAGTCAGTTTTATTGATAGTCTTTTCAGTATTATTGATAATCTT
effect of MTX in the growth media on growth: sensitizes cells to the presence of MTX in the growth media
